Measured values taken from PMC4413027 (Nature Communications, 2015).

Target: T1, Full-length human CDK1 from a 3C-protease cleavable GST fusion (GPLGS left at the N terminus), … (human, UniProt P06493 1-297)
T1 construct: short cloning artefact left at the N terminus after 3C cleavage of the GST fusion; CDK1, human, full length; also called GST-CDK1 (before cleavage); unphosphorylated CDK1; source: insect cells (Sf9, baculovirus pVL1393GST-CDK1), purified (glutathione-sepharose 4B, GST-3C cleavage, SEC); for ITC treated with λ-phosphatase and purified again by SEC; not shown: GST, N-terminal, cleaved
Test: ITC; higher salt, higher pH: 50 mM HEPES pH 8.0, 500 mM NaCl, 0.01% MTG, 30 °C; cyclin in the cell, unphosphorylated CDK from the syringe; one-set-of-sites model
Conditions: both partners purified

T1 sequence (P06493 other isoform, or with tags, fused parts or gaps): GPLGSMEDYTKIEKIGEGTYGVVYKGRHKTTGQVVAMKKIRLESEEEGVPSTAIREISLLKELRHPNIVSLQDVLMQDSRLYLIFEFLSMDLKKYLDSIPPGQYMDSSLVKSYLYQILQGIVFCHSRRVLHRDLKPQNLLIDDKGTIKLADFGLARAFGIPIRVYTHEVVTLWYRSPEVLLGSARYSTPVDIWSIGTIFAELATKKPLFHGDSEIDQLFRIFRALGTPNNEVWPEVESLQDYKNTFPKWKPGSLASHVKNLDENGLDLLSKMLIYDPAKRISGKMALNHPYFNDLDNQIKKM

B1: Human cyclin B1, residues 165–433 carrying the C167S/C238S/C350S mutations (domain or fragment)
chain: GSHMNLSSEYVKDIYAYLRQLEEEQAVRPKYLLGREVTGNMRAILIDWLVQVQMKFRLLQETMYMTVSIIDRFMQNNSVPKKMLQLVGVTAMFIASKYEEMYPPEIGDFAFVTDNTYTKHQIRQMEMKILRALNFGLGRPLPLHFLRRASKIGEVDVEQHTLAKYLMELTMLDYDMVHFPPSQIAAGAFSLALKILDNGEWTPTLQHYLSYTEESLLPVMQHLAKNVVMVNQGLTKHMTVKNKYATSKHAKISTLPQLNSALVQDLAKAVAKV
notes: artefact left N-terminal to N165 after thrombin cleavage of the hexa-histidine tag; cyclin B1, human, residues 165–433 (begins at N165); not shown: His6, N-terminal, cleaved
- Kd: 28 nM
